Assay results taken from article PMC9038204, “SNX27–Retromer directly binds ESCPE-1 to transfer cargo proteins during endosomal recycling” (PLoS Biology, 2022).

Legend:
[1] = tested on: FERM domain of human SNX27 (hSNX27FERM); experiment: ITC, hSNX27FERM titrated into mSNX1 proteins; format: binding; conditions: 25°C
Procedure: Human SNX1 and SNX2 peptide sequences were synthesized by Genscript (USA). To obtain the peptide stock solutions at neutral pH, 100 mM Tris-HCl, pH 10.6 was used to dissolve the peptide to a final concentration of 8 mM. The peptides were SNX1_35-51 […], SNX135-51(D45K) […], SNX1_75-92 […], SNX2_16-33 […], SNX2_16-33(DLF/SSS) […], and SNX2_62-82 […].
All microcalorimetry experiments were conducted at 25°C using a PEAQ ITC (Malvern, UK) in 50 mM HEPES (pH 7.5), 200 mM NaCl, 5% glycerol, and 1 mM β-ME (ITC buffer). All proteins were purified by SEC using the same buffer prior to ITC experiments to avoid buffer mismatches. To measure binding of SNX27 to SNX1 proteins, 800 μM of hSNX27FERM was titrated into 20 μM of GST-mSNX1_1-139 or His-SNX1FL. For the binding of SNX1 and SNX2 peptides to SNX27, peptides were diluted 10-fold to 800 μM in ITC buffer peptides and titrated into 20 μM SNX27FL proteins containing the same 1:10 ratio of peptide buffer (100 mM Tris-HCl, pH 10.6). The competitive ITC experiments were carried out by titrating 800 μM SNX1_75-92 peptides into 20 μM proteins with 2-fold molar excess SNX2_16-33 peptide preincubated with SNX27 on ice for an hour. For ITC experiment using SNX1_75-92 against hSNX27 wild-type and single-site mutants, 600 μM SNX1_75-92 peptide was titrated into 20 μM hSNX27 proteins.
The ITC experiments were conducted with 1 injection of 0.4 μL followed by a series of 12 injections of 3.2 μL each with 180-second intervals and a stirring speed of 850 rpm. The heat exchange of interactions was obtained through integrating the observed peaks and background correction by subtracting the heats of dilution. Data were analyzed with Malvern software package by fitting and normalized data to a single-site binding model, yielding the thermodynamic parameters Kd, ΔH, ΔG, and −TΔS for all binding experiments. The stoichiometry was refined initially, and if the value was close to 1, then N was set to exactly 1.0 for calculation. All experiments were performed at least twice to guarantee reproducibility of the data.

[2] = tested on: SNX27; experiment: GFP trap co-immunoprecipitation of GFP-SNX1/SNX2 constructs from HEK-293T, quantitative western blot: SNX27; format: binding; conditions: Fig 3F, S2B Fig; double aDLF mutants in HEK293T, GFP trap
Procedure: HeLa and HEK-293T cell lines were sourced from ATCC. Authentication was from the ATCC. Cells were grown in DMEM (Sigma-Aldrich) supplemented with 10% (v/v) FCS (Sigma-Aldrich) and penicillin/streptomycin (Gibco, USA) and grown under standard conditions. FuGENE HD (Promega, USA) was used for transient transfection of DNA according to the manufacturer’s instructions. Cycloheximide was used to prevent up-regulation of protein synthesis. In this case, cycloheximide (C7698; Sigma-Aldrich) at 10 μg/ml was added to the cells 48 hours after FuGENE transfection for the indicated time points. For the generation of CRISPR-Cas9 SNX27 knockout HeLa cells, HeLa cells were transfected with pX330 plasmid coding for the gRNA against the gene of interest together with a puromycin resistance–expressing plasmid. Cells were then subjected to puromycin selection for 24 hours. The pooled population of cells was subjected to lysis and western blotting to confirm the knockout. The VPS35 knockout clonal cell line used in this study was characterized previously. […]
For western blotting, cells were lysed in PBS with 1% (v/v) Triton X-100 and protease inhibitor cocktail. The protein concentration was determined with a BCA assay kit (Thermo Fisher Scientific, USA), and equal amounts were resolved on NuPAGE 4% to 12% precast gels (Invitrogen, USA). […]

[3] = pH 7.5, 800 μM hSNX27FERM into 20 μM mSNX1 protein

B1: mSNX1_1-139: recombinant truncated mSNX1 containing residues 1 to 139, GST fusion protein (protein)
chain: MASGGGGCSASERLPPPFPGMDPESEGAAGASEPEAGDSDTEGEDIFTGAAAATKPQSPKKTTSLFPIKNGSKENGIHEDQDQEPQDLFADATVELSLDSTQNNQKTMPGKTLTSHSPQEATNSPKPQPSYEELEEEEQ
modifications: left off: GST, N-terminal, kept
notes: recombinant truncated mSNX1 containing residues 1 to 139, GST fusion protein
B1 showed a ΔG [1, 3] of -6.02 ± 0.01 kcal/mol and a ΔH [1, 3] of -6.93 ± 0.01 kcal/mol.

B2: mSNX1FL: recombinant full-length mouse SNX1 with an amino-terminal His-tag (protein)
chain: MASGGGGCSASERLPPPFPGMDPESEGAAGASEPEAGDSDTEGEDIFTGAAAATKPQSPKKTTSLFPIKNGSKENGIHEDQDQEPQDLFADATVELSLDSTQNNQKTMPGKTLTSHSPQEATNSPKPQPSYEELEEEEQEDQFDLTVGITDPEKIGDGMNAYVAYKVTTQTSLPMFRSRQFAVKRRFSDFLGLYEKLSEKHSQNGFIVPPPPEKSLIGMTKVKVGKEDSSSAEFLEKRRAALERYLQRIVNHPTMLQDPDVREFLEKEELPRAVGTQALSGAGLLKMFNKATDAVSKMTIKMNESDIWFEEKLQEVECEEQRLRKLHAVVETLVNHRKELALNTALFAKSLAMLGSSEDNTALSRALSQLAEVEEKIEQLHQEQANNDSFLLAELLSDYIRLLAIVRAAFDQRMKTWQRWQDAQATLQKKRESEARLLWANKPDKLQQAKDEITEWESRVTQYERDFERISTVVRKEVTRFEKEKSKDFKNHVMKYLETLLHSQQQLAKYWEAFLPEAKAIS
modifications: left off: His-tag, N-terminal, kept
With B2 the Kd ([1]; 50 mM HEPES pH 7.5, 200 mM NaCl, 5% glycerol, 1 mM β-ME, 800 μM hSNX27FERM titrated into 20 μM mSNX1 protein, single-site fit, mean of at least 2 experiments) was 41 µM, the “-TΔS” value [1, 3] was 0.24 ± 3.10 kcal/mol and the ΔG [1, 3] was -5.99 ± 0.02 kcal/mol. For the same molecule, the ΔH [1, 3] was -6.23 ± 3.11 kcal/mol.

B3: GFP-SNX2(D26K,D72K): mutant targeting both aDLF motifs in SNX2 (protein, UniProt O60749 1-519, looked up, variant D26K D72K)
Sorting nexin-2: MAAEREPPPLGDGKPTDFEDLEDGEKLFTSTVSTLESSPSSPEPASLPAEDISANSNGPKPTEVVLDDDREKLFAEATEEVSLDSPEREPILSSEPSPAVTPVTPTTLIAPRIESKSMSAPVIFDRSREEIEEEANGDIFDIEIGVSDPEKVGDGMNAYMAYRVTTKTSLSMFSKSEFSVKRRFSDFLGLHSKLASKYLHVGYIVPPAPEKSIVGMTKVKVGKEDSSSTEFVEKRRAALERYLQRTVKHPTLLQDPDLRQFLESSELPRAVNTQALSGAGILRMVNKAADAVNKMTIKMNESDAWFEEKQQQFENLDQQLRKLHVSVEALVCHRKELSANTAAFAKSAAMLGNSEDHTALSRALSQLAEVEEKIDQLHQEQAFADFYMFSELLSDYIRLIAAVKGVFDHRMKCWQKWEDAQITLLKKREAEAKMMVANKPDKIQQAKNEIREWEAKVQQGERDFEQISKTIRKEVGRFEKERVKDFKTVIIKYLESLVQTQQQLIKYWEAFLPEAKAIA
modifications: GFP tag
In the case of B3, the “SNX27 binding, in words” value [2] is reported as “near undetectable levels”.
